Assay results as given in the supplement of paper PMC10065799, “High-throughput profiling of sequence recognition by tyrosine kinases and SH2 domains using bacterial peptide display” (eLife, 2023).

Key:
Hck = Hck (UniProt P08631); experiment: phosphorylation enrichment, bacterial display (enrichment ratio); higher = better substrate or ligand; peptides without Tyr show the background
c-Src = experiment: as above
Fyn = Fyn (UniProt P06241); experiment: as above
FGFR1 = FGFR1 (UniProt P11362); experiment: as above
Chain of FGFR1 (P11362 whole entry, looked up): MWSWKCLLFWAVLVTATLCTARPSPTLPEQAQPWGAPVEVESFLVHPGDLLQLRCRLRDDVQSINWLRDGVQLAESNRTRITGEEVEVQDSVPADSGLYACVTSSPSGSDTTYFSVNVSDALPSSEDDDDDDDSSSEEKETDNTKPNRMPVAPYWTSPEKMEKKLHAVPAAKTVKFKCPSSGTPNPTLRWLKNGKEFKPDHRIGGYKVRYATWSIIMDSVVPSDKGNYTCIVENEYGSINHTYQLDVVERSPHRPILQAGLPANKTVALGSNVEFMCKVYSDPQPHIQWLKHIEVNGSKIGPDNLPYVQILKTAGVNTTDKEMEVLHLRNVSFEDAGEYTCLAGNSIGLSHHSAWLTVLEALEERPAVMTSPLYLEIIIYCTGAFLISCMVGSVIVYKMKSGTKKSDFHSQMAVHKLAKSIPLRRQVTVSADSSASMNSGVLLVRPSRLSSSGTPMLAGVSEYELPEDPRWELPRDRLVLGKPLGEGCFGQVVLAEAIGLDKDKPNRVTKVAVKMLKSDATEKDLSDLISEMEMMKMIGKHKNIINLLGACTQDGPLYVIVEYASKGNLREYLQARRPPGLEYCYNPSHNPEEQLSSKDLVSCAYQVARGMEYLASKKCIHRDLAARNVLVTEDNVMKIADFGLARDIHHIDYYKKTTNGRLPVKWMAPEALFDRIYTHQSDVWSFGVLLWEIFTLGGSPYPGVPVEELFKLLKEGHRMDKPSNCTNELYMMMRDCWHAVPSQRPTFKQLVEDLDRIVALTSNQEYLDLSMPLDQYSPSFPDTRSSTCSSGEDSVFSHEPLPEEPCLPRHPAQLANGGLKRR

Jak2 = Jak2 (UniProt O60674); experiment: as above
Chain of Jak2 (O60674 whole entry, looked up): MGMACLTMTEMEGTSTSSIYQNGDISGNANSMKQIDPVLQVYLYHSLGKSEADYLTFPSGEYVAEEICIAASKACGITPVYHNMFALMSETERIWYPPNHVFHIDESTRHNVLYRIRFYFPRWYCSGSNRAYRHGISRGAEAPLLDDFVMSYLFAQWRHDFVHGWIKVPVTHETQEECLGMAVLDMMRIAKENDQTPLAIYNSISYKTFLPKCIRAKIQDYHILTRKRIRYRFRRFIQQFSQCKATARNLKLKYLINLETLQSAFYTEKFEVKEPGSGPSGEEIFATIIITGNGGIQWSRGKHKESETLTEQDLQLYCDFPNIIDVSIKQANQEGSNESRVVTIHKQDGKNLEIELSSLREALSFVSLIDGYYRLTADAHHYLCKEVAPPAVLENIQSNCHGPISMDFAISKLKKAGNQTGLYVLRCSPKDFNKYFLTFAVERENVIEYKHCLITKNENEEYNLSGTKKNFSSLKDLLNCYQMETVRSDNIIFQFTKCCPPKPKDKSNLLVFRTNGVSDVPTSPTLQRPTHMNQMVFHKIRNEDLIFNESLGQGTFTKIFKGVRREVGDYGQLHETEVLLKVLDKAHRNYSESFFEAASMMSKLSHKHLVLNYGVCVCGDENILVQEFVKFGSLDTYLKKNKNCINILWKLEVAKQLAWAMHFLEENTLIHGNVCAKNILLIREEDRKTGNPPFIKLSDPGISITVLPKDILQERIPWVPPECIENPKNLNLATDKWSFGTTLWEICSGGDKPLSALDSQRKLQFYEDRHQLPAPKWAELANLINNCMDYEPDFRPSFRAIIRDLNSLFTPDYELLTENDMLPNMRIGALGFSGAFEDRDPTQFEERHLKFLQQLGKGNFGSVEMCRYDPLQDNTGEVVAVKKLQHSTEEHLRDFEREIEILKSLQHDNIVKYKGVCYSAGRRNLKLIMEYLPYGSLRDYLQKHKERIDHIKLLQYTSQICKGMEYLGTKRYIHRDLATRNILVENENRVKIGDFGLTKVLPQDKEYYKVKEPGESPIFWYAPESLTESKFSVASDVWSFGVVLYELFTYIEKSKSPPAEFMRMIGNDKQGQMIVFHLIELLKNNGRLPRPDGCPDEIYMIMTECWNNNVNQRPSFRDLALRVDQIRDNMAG

FGFR3 = FGFR3 (UniProt P22607); experiment: as above
AncSZ = experiment: as above
Fes = Fes (UniProt P07332); experiment: as above
MERTK = MERTK (UniProt Q12866); experiment: as above
c-Abl (mouse) = experiment: as above
EPHB2 = EPHB2 (UniProt P29323); experiment: as above
Chain of EPHB2 (P29323 whole entry, looked up): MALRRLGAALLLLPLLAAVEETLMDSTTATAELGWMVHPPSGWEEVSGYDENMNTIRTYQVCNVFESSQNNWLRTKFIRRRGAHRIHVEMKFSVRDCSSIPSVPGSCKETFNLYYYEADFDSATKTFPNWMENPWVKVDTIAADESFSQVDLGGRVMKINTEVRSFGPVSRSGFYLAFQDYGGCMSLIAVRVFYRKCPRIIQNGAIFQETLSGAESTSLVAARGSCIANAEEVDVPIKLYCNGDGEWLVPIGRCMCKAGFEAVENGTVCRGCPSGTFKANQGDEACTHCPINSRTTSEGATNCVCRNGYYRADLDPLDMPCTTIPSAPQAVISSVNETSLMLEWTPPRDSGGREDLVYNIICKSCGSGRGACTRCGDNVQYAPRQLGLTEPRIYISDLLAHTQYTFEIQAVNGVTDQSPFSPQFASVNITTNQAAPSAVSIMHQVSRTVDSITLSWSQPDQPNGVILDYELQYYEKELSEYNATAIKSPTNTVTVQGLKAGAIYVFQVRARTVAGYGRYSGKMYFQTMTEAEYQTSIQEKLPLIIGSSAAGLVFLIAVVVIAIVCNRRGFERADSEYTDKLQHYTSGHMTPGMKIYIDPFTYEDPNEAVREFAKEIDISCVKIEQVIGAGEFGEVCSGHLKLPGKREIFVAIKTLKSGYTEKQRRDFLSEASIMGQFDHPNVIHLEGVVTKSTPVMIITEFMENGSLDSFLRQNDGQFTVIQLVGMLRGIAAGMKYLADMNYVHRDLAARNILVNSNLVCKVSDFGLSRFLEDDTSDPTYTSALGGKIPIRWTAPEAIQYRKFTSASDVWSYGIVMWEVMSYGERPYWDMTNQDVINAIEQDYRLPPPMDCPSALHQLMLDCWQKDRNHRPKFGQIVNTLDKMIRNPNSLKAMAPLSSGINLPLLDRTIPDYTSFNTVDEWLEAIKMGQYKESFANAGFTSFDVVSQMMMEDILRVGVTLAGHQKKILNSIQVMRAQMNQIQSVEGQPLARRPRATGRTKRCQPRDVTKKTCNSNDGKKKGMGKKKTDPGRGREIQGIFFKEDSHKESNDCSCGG

EPHB1 = EPHB1 (UniProt P54762); experiment: as above
Fer (mouse) = experiment: as above
Grb2 SH2 = Grb2 SH2 (UniProt P62993); experiment: SH2 binding enrichment of the phosphorylated peptide, bacterial display (enrichment ratio); higher = better substrate or ligand; peptides without Tyr show the background
Chain of Grb2 SH2 (P62993 whole entry, looked up): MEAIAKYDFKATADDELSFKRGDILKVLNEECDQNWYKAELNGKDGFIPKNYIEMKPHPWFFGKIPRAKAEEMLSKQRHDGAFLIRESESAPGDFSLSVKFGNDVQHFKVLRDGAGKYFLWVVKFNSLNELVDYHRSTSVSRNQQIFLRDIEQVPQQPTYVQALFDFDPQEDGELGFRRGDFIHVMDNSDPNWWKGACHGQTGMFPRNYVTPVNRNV

SHP2-C SH2 = experiment: as above
c-Src SH2 = experiment: as above
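Wherever SH2 binding enrichment of the phosphorylated peptide, bacterial display is given: peptide library displayed on the E. coli surface as eCPX fusions, selected cells deep-sequenced, score is each peptide's frequency after selection divided by its frequency in the input.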
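Wherever phosphorylation enrichment, bacterial display is given: 11-residue human phosphosite peptides and single-mutation variants displayed on the E. coli surface, counted by deep sequencing, each peptide's frequency after selection divided by its frequency in the unselected input library; frequency after pTyr selection over input frequency; kinase dosed for 20-30% of maximal phosphorylation in three min.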

Chain of Fyn (P06241 whole entry, looked up): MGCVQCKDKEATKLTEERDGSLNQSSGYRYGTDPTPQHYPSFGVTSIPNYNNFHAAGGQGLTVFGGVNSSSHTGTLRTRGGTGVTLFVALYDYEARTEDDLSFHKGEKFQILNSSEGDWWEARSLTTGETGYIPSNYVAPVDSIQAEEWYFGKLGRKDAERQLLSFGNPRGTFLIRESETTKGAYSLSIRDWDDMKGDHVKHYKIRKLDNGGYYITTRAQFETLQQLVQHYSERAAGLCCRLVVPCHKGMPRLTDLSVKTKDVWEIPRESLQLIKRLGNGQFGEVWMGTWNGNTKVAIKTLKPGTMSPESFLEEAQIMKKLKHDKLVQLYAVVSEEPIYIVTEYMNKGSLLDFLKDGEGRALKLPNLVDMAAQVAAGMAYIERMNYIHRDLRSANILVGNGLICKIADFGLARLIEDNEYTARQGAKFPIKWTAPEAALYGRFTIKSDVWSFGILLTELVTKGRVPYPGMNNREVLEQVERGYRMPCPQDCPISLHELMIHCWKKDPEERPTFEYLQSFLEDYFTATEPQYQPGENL
Chain of Hck (P08631 whole entry, looked up): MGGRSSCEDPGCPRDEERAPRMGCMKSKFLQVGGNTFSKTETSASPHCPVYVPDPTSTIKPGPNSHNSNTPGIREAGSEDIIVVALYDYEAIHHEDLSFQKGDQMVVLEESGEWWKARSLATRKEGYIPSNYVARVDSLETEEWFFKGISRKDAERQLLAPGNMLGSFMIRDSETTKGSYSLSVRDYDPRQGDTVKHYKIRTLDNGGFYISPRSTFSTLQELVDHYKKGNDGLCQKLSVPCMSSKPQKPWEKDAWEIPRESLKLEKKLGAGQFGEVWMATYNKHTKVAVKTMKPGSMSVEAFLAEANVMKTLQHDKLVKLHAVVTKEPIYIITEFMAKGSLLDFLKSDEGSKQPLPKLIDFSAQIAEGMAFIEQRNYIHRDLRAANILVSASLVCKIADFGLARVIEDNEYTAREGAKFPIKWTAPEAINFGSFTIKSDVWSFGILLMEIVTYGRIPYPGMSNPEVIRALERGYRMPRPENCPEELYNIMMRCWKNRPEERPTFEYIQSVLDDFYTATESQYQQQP

MKGEFYRFLAE [YWHAG_Y131_D129E_YF]
phosphorylation enrichment (Hck): 0.414
phosphorylation enrichment (c-Src): 0.382
phosphorylation enrichment (Fyn): 0.392
phosphorylation enrichment (FGFR1): 0.336
phosphorylation enrichment (Jak2): 0.907
phosphorylation enrichment (FGFR3): 0.529
phosphorylation enrichment (AncSZ): 0.77
phosphorylation enrichment (Fes): 0.902
phosphorylation enrichment (MERTK): 0.372
phosphorylation enrichment (c-Abl (mouse)): 0.627
phosphorylation enrichment (EPHB2): 0.455
phosphorylation enrichment (EPHB1): 0.426
phosphorylation enrichment (Fer (mouse)): 0.4
SH2 binding enrichment (Grb2 SH2): 0.712
SH2 binding enrichment (SHP2-C SH2): 0.464
SH2 binding enrichment (c-Src SH2): 0.351

MKVPLYETPAG [PGM5_Y358_V357L]
phosphorylation enrichment (Hck): 6.03
phosphorylation enrichment (c-Src): 1.81
phosphorylation enrichment (Fyn): 1.82
phosphorylation enrichment (FGFR1): 0.52
phosphorylation enrichment (Jak2): 0.767
phosphorylation enrichment (FGFR3): 0.632
phosphorylation enrichment (AncSZ): 1.64
phosphorylation enrichment (Fes): 1.06
phosphorylation enrichment (MERTK): 9.79
phosphorylation enrichment (c-Abl (mouse)): 11.2
phosphorylation enrichment (EPHB2): 27.8
phosphorylation enrichment (EPHB1): 19.4
phosphorylation enrichment (Fer (mouse)): 16.7
SH2 binding enrichment (Grb2 SH2): 1.01
SH2 binding enrichment (SHP2-C SH2): 1.69
SH2 binding enrichment (c-Src SH2): 1.08

MLNTNYHLPPS [MT-ATP8_Y33]
phosphorylation enrichment (Hck): 0.297
phosphorylation enrichment (c-Src): 0.354
phosphorylation enrichment (Fyn): 0.384
phosphorylation enrichment (FGFR1): 3.4
phosphorylation enrichment (Jak2): 0.502
phosphorylation enrichment (FGFR3): 2.43
phosphorylation enrichment (AncSZ): 0.705
phosphorylation enrichment (Fes): 0.526
phosphorylation enrichment (MERTK): 0.757
phosphorylation enrichment (c-Abl (mouse)): 0.556
phosphorylation enrichment (EPHB2): 0.514
phosphorylation enrichment (EPHB1): 0.617
phosphorylation enrichment (Fer (mouse)): 0.327
SH2 binding enrichment (Grb2 SH2): 1
SH2 binding enrichment (SHP2-C SH2): 0.67
SH2 binding enrichment (c-Src SH2): 0.515

MRNDLYQTPLH [NFKB1_Y582]
phosphorylation enrichment (Hck): 4.21
phosphorylation enrichment (c-Src): 1.94
phosphorylation enrichment (Fyn): 1.8
phosphorylation enrichment (FGFR1): 0.454
phosphorylation enrichment (Jak2): 0.693
phosphorylation enrichment (FGFR3): 0.57
phosphorylation enrichment (AncSZ): 1.69
phosphorylation enrichment (Fes): 0.845
phosphorylation enrichment (MERTK): 2.62
phosphorylation enrichment (c-Abl (mouse)): 5.88
phosphorylation enrichment (EPHB2): 2.44
phosphorylation enrichment (EPHB1): 1.19
phosphorylation enrichment (Fer (mouse)): 4.12
SH2 binding enrichment (Grb2 SH2): 0.697
SH2 binding enrichment (SHP2-C SH2): 0.55
SH2 binding enrichment (c-Src SH2): 0.381

MSRDVYSTDFF [NTRK2_Y702_YF]
phosphorylation enrichment (Hck): 1.28
phosphorylation enrichment (c-Src): 2.73
phosphorylation enrichment (Fyn): 2.65
phosphorylation enrichment (FGFR1): 1.06
phosphorylation enrichment (Jak2): 0.728
phosphorylation enrichment (FGFR3): 0.718
phosphorylation enrichment (AncSZ): 0.691
phosphorylation enrichment (Fes): 0.732
phosphorylation enrichment (MERTK): 5.05
phosphorylation enrichment (c-Abl (mouse)): 0.568
phosphorylation enrichment (EPHB2): 0.774
phosphorylation enrichment (EPHB1): 0.756
phosphorylation enrichment (Fer (mouse)): 0.486
SH2 binding enrichment (Grb2 SH2): 0.835
SH2 binding enrichment (SHP2-C SH2): 0.659
SH2 binding enrichment (c-Src SH2): 0.516

MSSLFYANALF [HOXB7_Y6_T9A_YF]
phosphorylation enrichment (Hck): 0.705
phosphorylation enrichment (c-Src): 0.975
phosphorylation enrichment (Fyn): 0.762
phosphorylation enrichment (FGFR1): 0.58
phosphorylation enrichment (Jak2): 1.24
phosphorylation enrichment (FGFR3): 0.743
phosphorylation enrichment (AncSZ): 0.975
phosphorylation enrichment (Fes): 1.21
phosphorylation enrichment (MERTK): 1.29
phosphorylation enrichment (c-Abl (mouse)): 0.696
phosphorylation enrichment (EPHB2): 0.755
phosphorylation enrichment (EPHB1): 0.764
phosphorylation enrichment (Fer (mouse)): 1.78
SH2 binding enrichment (Grb2 SH2): 1.25
SH2 binding enrichment (SHP2-C SH2): 0.64
SH2 binding enrichment (c-Src SH2): 0.693

MTKEQYIKMNR [ARFGEF2_Y797]
phosphorylation enrichment (Hck): 0.407
phosphorylation enrichment (c-Src): 0.369
phosphorylation enrichment (Fyn): 0.397
phosphorylation enrichment (FGFR1): 0.458
phosphorylation enrichment (Jak2): 0.563
phosphorylation enrichment (FGFR3): 0.445
phosphorylation enrichment (AncSZ): 0.595
phosphorylation enrichment (Fes): 0.558
phosphorylation enrichment (MERTK): 0.348
phosphorylation enrichment (c-Abl (mouse)): 0.335
phosphorylation enrichment (EPHB2): 0.357
phosphorylation enrichment (EPHB1): 0.365
phosphorylation enrichment (Fer (mouse)): 0.346
SH2 binding enrichment (Grb2 SH2): 0.823
SH2 binding enrichment (SHP2-C SH2): 0.672
SH2 binding enrichment (c-Src SH2): 0.454

NARGLYFKLHN [GATA2_Y376_C373R_YF]
phosphorylation enrichment (Hck): 0.53
phosphorylation enrichment (c-Src): 0.542
phosphorylation enrichment (Fyn): 0.487
phosphorylation enrichment (FGFR1): 0.554
phosphorylation enrichment (Jak2): 1.67
phosphorylation enrichment (FGFR3): 0.87
phosphorylation enrichment (AncSZ): 1.51
phosphorylation enrichment (Fes): 1.34
phosphorylation enrichment (MERTK): 0.476
phosphorylation enrichment (c-Abl (mouse)): 0.896
phosphorylation enrichment (EPHB2): 0.634
phosphorylation enrichment (EPHB1): 0.622
phosphorylation enrichment (Fer (mouse)): 0.657
SH2 binding enrichment (Grb2 SH2): 0.988
SH2 binding enrichment (SHP2-C SH2): 0.88
SH2 binding enrichment (c-Src SH2): 0.624

NFRNTYVNANE [KCNH2_Y475_T473N]
phosphorylation enrichment (Hck): 0.466
phosphorylation enrichment (c-Src): 0.424
phosphorylation enrichment (Fyn): 0.404
phosphorylation enrichment (FGFR1): 0.434
phosphorylation enrichment (Jak2): 0.577
phosphorylation enrichment (FGFR3): 0.474
phosphorylation enrichment (AncSZ): 0.559
phosphorylation enrichment (Fes): 0.677
phosphorylation enrichment (MERTK): 0.404
phosphorylation enrichment (c-Abl (mouse)): 0.467
phosphorylation enrichment (EPHB2): 0.395
phosphorylation enrichment (EPHB1): 0.373
phosphorylation enrichment (Fer (mouse)): 0.358
SH2 binding enrichment (Grb2 SH2): 29.8
SH2 binding enrichment (SHP2-C SH2): 1.55
SH2 binding enrichment (c-Src SH2): 2.64

NGLVACKDGKL [PMM2_Y76_Y76C]
phosphorylation enrichment (Hck): 0.401
phosphorylation enrichment (c-Src): 0.387
phosphorylation enrichment (Fyn): 0.416
phosphorylation enrichment (FGFR1): 0.392
phosphorylation enrichment (Jak2): 0.435
phosphorylation enrichment (FGFR3): 0.484
phosphorylation enrichment (AncSZ): 0.486
phosphorylation enrichment (Fes): 0.43
phosphorylation enrichment (MERTK): 0.367
phosphorylation enrichment (c-Abl (mouse)): 0.401
phosphorylation enrichment (EPHB2): 0.524
phosphorylation enrichment (EPHB1): 0.397
phosphorylation enrichment (Fer (mouse)): 0.419
SH2 binding enrichment (Grb2 SH2): 0.969
SH2 binding enrichment (SHP2-C SH2): 0.893
SH2 binding enrichment (c-Src SH2): 0.541

NGLVAYKDGKL [PMM2_Y76]
phosphorylation enrichment (Hck): 0.372
phosphorylation enrichment (c-Src): 0.423
phosphorylation enrichment (Fyn): 0.305
phosphorylation enrichment (FGFR1): 0.431
phosphorylation enrichment (Jak2): 0.528
phosphorylation enrichment (FGFR3): 0.448
phosphorylation enrichment (AncSZ): 0.602
phosphorylation enrichment (Fes): 0.612
phosphorylation enrichment (MERTK): 0.429
phosphorylation enrichment (c-Abl (mouse)): 0.427
phosphorylation enrichment (EPHB2): 0.403
phosphorylation enrichment (EPHB1): 0.341
phosphorylation enrichment (Fer (mouse)): 0.457
SH2 binding enrichment (Grb2 SH2): 0.917
SH2 binding enrichment (SHP2-C SH2): 0.669
SH2 binding enrichment (c-Src SH2): 0.436

NHFKIYNLCAE [PTEN_Y68_YF]
phosphorylation enrichment (Hck): 1.12
phosphorylation enrichment (c-Src): 3.12
phosphorylation enrichment (Fyn): 2.61
phosphorylation enrichment (FGFR1): 0.676
phosphorylation enrichment (Jak2): 0.577
phosphorylation enrichment (FGFR3): 0.647
phosphorylation enrichment (AncSZ): 0.882
phosphorylation enrichment (Fes): 0.766
phosphorylation enrichment (MERTK): 0.584
phosphorylation enrichment (c-Abl (mouse)): 0.52
phosphorylation enrichment (EPHB2): 0.516
phosphorylation enrichment (EPHB1): 0.412
phosphorylation enrichment (Fer (mouse)): 0.535
SH2 binding enrichment (Grb2 SH2): 0.967
SH2 binding enrichment (SHP2-C SH2): 0.825
SH2 binding enrichment (c-Src SH2): 0.974

NIISFYLSRDP [CTSD_Y232_F229I]
phosphorylation enrichment (Hck): 0.451
phosphorylation enrichment (c-Src): 0.346
phosphorylation enrichment (Fyn): 0.446
phosphorylation enrichment (FGFR1): 0.516
phosphorylation enrichment (Jak2): 0.958
phosphorylation enrichment (FGFR3): 0.773
phosphorylation enrichment (AncSZ): 1.18
phosphorylation enrichment (Fes): 1.27
phosphorylation enrichment (MERTK): 0.36
phosphorylation enrichment (c-Abl (mouse)): 0.655
phosphorylation enrichment (EPHB2): 0.498
phosphorylation enrichment (EPHB1): 0.529
phosphorylation enrichment (Fer (mouse)): 0.43
SH2 binding enrichment (Grb2 SH2): 1.59
SH2 binding enrichment (SHP2-C SH2): 1.41
SH2 binding enrichment (c-Src SH2): 1.11

NKFVAYIESQG [KDM4B_Y34_YF]
phosphorylation enrichment (Hck): 0.494
phosphorylation enrichment (c-Src): 0.452
phosphorylation enrichment (Fyn): 0.49
phosphorylation enrichment (FGFR1): 0.491
phosphorylation enrichment (Jak2): 0.836
phosphorylation enrichment (FGFR3): 0.663
phosphorylation enrichment (AncSZ): 0.899
phosphorylation enrichment (Fes): 1.12
phosphorylation enrichment (MERTK): 0.459
phosphorylation enrichment (c-Abl (mouse)): 0.611
phosphorylation enrichment (EPHB2): 0.553
phosphorylation enrichment (EPHB1): 0.526
phosphorylation enrichment (Fer (mouse)): 0.481
SH2 binding enrichment (Grb2 SH2): 0.968
SH2 binding enrichment (SHP2-C SH2): 0.801
SH2 binding enrichment (c-Src SH2): 0.565

NKYVAYIESQG [KDM4B_Y34]
phosphorylation enrichment (Hck): 0.413
phosphorylation enrichment (c-Src): 0.437
phosphorylation enrichment (Fyn): 0.407
phosphorylation enrichment (FGFR1): 0.567
phosphorylation enrichment (Jak2): 0.827
phosphorylation enrichment (FGFR3): 0.625
phosphorylation enrichment (AncSZ): 0.893
phosphorylation enrichment (Fes): 0.885
phosphorylation enrichment (MERTK): 0.449
phosphorylation enrichment (c-Abl (mouse)): 0.692
phosphorylation enrichment (EPHB2): 0.472
phosphorylation enrichment (EPHB1): 0.554
phosphorylation enrichment (Fer (mouse)): 0.422
SH2 binding enrichment (Grb2 SH2): 0.755
SH2 binding enrichment (SHP2-C SH2): 1.51
SH2 binding enrichment (c-Src SH2): 0.676
